Values of other authors, collected in PMC7396566.

Experiments:
[1] = molecular target: TSLP:TSLPR complex (Homo sapiens) (UniProt Q969D9)
[2] = molecular target: TSLP (Homo sapiens) (UniProt Q969D9)
[3] = molecular target: IL-7Rα (Homo sapiens) (UniProt P16871)

TSLPR, sequence (Q9HC73 23-231): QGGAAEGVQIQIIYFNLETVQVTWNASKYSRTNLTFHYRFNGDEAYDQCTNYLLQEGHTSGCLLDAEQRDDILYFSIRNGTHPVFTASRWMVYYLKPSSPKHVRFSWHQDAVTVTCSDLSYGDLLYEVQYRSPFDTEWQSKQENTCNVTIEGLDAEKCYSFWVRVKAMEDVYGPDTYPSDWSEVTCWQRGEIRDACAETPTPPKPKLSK

Substance | Kd [1] [nM] | Kd [2] [nM] | Kd [3] [nM]
IL-7Rα (from UniProt P16871) | 29 |  | 
TSLPR (from UniProt Q9HC73) |  | 32 | 20000
